Tests used:
Experiment in all cases: cell-based or functional assay
[1] = biological target: SARS-CoV-2 B.1.1.7假病毒的S蛋白 (SARS-CoV-2 B.1.1.7)
[2] = biological target: SARS-CoV-2 B.1.351假病毒的S蛋白 (SARS-CoV-2 B.1.351)
[3] = biological target: SARS-CoV-2 B.1.617假病毒的S蛋白 (SARS-CoV-2 B.1.617)

B1: 单抗3H3 (antibody, V domains shown)
VH: QVQLQQPGAELVRPGASVKLSCKASGYSFTRFWMNWVKQRPGQGLEWIGMIHPSDSETRLNQKFKDKATLTVDKSSTTAYMQLSSPTSEDSAVYYCARKDYDYDAWFAYWGQGTLVTVSA
VL: DIVLTQSPASLAVSLGQRATISCRASKSVSASVYSYMHWYQQKPGQPPKLLIYLASSLESGVPARFSGSGSGTDFTLNIHPVEEEDAATYYCHHSRELPPAFGGGTKLEIKR
notes: also called 抗体3H3
中和IC50, 假病毒中和试验 [1]: 0.191 µg/mL | 中和IC50, 假病毒中和试验 [2]: 0.107 µg/mL | 中和IC50, 假病毒中和试验 [3]: 0.098 µg/mL

B2: 单抗5G2 (antibody)
heavy: EVLLQQSGPELVKPGASVKIPCKASGYTFTDYNMDWVKQSHGKSLEWIGDINPNSGFIIYNQKFKGKASLTVDKSSSTAYMELRSLTSEDTAVYYCAREGYGNNFDYWGQGTTLSVSSAKTTPPSVYPLAPGCGDTTGSSVTLGCLVKGYFPESVTVTWNSGSLSSSVHTFPALLQSGLYTMSSSVTVPSSTWPSQTVTCSVAHPASSTTVDKKLEPSGPISTINPCPPCKECHKCPAPNLEGGPSVFIFPPNIKDVLMISLTPKVTCVVVDVSEDDPDVQISWFVNNVEVHTAQTQTHREDYNSTIRVVSTLPIQHQDWMSGKEFKCKVNNKDLPSPIERTISKIKGLVRAPQVYILPPPAEQLSRKDVSLTCLVVGFNPGDISVEWTSNGHTEENYKDTAPVLDSDGSYFIYSKLNMKTSKWEKTDSFSCNVRHEGLKNYYLKKTISRSPGK
light: DILLTQSPTILSVSPGERVSFSCRASQSIGTSIHWYQQRTKGSPRLLIKYASESISGIPSRFSGSGSGTDFTLSINSVESEDIGDYYCQQSYSWPTTFGAGTKLELK
notes: also called 抗体5G2
半数抑制浓度(IC50), 假病毒中和试验 [1]: 0.482 µg/mL | 半数抑制浓度(IC50), 假病毒中和试验 [2]: 0.367 µg/mL | 半数抑制浓度(IC50), 假病毒中和试验 [3]: 0.103 µg/mL

Source: patent CN115521375A (INST PASTEUR SHANGHAI CAS, dated 2022)
